US20220396632A1 (VERSEAU THERAPEUTICS, published 2022)
Non-standard residues stand in square brackets, D forms with d. No end group written: not given here. *: point of attachment. Biotin = O=C1N[C@H]2[C@H](CS[C@H]2CCCCC(=O)*)N1; sY = N[C@@H](Cc1ccc(OS(=O)(=O)O)cc1)C(=O)O

Key:
SulfoTyr C4 peptide = biological target: T1, SulfoTyr C4 peptide (not fully specified; Y4, Y7 and Y9 sulfated (SO3); C-terminal biotin); experiment: ELISA, 50 nM mAb
T1 construct: also called C4 alpha chain peptide; human sulfotyrosinylated C4 peptide
T1 peptide: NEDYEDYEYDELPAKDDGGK
Procedure: (§1) Recombinant PSGL-1-hFc1 chimera protein consisting of PSGL-1's extracellular domain (ECD) served as a positive control. […] Primary antibody was added (25 ul per well) in duplicate at 50 nM in assay buffer (blocking buffer containing 0.05% Tween®20) into test and control (just blocked) wells and the plate incubated for 45 min at 37° C.

[1] = biological target: T2, Sulfotyr fibrinogen γ peptide (not fully specified; Y8 and Y12 sulfated (SO3); C-terminal biotin); experiment: ELISA, 50 nM mAb
T2 construct: also called Fibrinogen gamma peptide; human sulfotyrosinylated fibrinogen peptide
T2 peptide: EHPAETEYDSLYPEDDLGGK
Procedure: as §1

[2] = biological target: T3, Recombinant human PSGL-1(ECD)-hFc1 (R&D Systems, Cat. 3345-PS) (human, UniProt Q14242 42-305); experiment: ELISA, 50 nM mAb
T3 construct: Bought; Gln42-Val295 counted on AAC50061; also called PSGL-1-Fc; PSGL-1-hFc1 chimera; not shown: human IgG1 Fc, Pro100-Lys330
T3 sequence: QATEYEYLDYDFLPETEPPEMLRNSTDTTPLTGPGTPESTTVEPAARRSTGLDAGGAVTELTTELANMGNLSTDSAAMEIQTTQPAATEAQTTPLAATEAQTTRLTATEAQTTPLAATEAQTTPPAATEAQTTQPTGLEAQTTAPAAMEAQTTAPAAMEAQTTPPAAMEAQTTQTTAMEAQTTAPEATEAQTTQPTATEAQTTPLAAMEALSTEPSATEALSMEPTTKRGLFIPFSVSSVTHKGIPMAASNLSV
Procedure: as §1

[3] = biological target: T4, Human complement C4 protein (Millipore Sigma, Cat. 204886) (human, UniProt P0C0L4 20-675; P0C0L4 680-1446; P0C0L4 1454-1744, limits assumed, natural sulfotyrosines); experiment: ELISA, 50 nM mAb
T4 construct: mature
Procedure: as §1

[4] = biological target: T5, Human fibrinogen protein (ThermoFisher, RP-43142) (human, UniProt P02671 20-629; P02675 31-491; P02679 27-453, limits assumed, natural sulfotyrosines); experiment: ELISA, 50 nM mAb
T5 construct: mature; Native dimer with 3 pairs of non-identical chains; also called gamma-fibrinogen; γ fibrinogen protein
T5 sequence (looked up) 1: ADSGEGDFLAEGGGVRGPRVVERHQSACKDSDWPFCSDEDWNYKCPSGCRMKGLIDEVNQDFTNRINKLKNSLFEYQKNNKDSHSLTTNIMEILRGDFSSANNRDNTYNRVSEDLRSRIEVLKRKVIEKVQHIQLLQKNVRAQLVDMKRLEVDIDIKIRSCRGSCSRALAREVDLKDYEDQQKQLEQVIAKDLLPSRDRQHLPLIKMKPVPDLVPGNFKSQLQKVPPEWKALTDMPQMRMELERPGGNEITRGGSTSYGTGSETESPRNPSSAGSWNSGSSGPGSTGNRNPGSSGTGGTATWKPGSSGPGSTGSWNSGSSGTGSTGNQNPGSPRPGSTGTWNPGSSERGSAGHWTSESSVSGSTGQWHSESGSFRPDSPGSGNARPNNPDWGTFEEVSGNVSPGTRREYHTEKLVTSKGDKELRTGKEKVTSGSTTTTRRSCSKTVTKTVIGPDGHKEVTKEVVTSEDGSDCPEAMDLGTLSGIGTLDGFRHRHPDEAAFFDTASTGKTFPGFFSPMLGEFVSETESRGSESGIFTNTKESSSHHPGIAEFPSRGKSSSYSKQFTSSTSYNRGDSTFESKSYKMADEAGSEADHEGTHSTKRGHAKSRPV
T5 sequence (looked up) 2: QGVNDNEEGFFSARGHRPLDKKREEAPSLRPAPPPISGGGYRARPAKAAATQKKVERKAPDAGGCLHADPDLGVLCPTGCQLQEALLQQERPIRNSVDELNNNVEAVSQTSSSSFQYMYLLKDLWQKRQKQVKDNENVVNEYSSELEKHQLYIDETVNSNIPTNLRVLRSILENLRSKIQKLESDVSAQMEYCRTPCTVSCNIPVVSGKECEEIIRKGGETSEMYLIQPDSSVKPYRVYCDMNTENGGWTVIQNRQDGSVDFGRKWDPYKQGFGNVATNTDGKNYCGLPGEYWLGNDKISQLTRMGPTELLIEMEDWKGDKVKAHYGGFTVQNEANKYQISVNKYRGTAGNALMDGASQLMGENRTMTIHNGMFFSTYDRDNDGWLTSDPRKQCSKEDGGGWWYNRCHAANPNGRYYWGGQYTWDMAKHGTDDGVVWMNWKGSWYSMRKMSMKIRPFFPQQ
T5 sequence (looked up) 3: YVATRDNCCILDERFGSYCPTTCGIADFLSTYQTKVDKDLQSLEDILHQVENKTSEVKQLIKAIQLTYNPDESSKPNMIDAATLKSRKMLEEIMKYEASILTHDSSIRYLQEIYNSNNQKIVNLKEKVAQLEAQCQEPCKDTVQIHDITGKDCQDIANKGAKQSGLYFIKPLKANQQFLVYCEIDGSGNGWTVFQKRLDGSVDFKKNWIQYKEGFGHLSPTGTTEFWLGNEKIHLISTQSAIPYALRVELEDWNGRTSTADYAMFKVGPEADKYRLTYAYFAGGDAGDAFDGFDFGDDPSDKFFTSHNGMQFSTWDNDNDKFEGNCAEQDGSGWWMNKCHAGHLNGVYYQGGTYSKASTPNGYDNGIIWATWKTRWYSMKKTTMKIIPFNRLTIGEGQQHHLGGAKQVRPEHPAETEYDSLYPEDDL
Procedure: as §1

SulfoCCK biotin peptide = biological target: T6, SulfoCCK biotin peptide (human); experiment: ELISA, 50 nM mAb
T6 construct: also called sulfotyrosine CCK peptide
T6 peptide: SHRISDRD[sY]MGWMDFGGK(Biotin)
Procedure: as §1

[5] = biological target: T7, Sulfotyrosine CCR2b biotin peptide (human); experiment: ELISA, 50 nM mAb
T7 construct: also called CCR2b peptide
T7 peptide: TTFFD[sY]D[sY]GAPSHGGK(Biotin)
Procedure: as §1

[6] = biological target: T8, Biotin Y46,48,51(SO3) PSGL-1(42-62) peptide (human, sulfotyrosine at Y46, Y48 and Y51; C-terminal Lys-biotin); experiment: ELISA, immobilized biotin peptide
T8 construct: also called fully sulfated N-terminal PSGL-1 peptide
T8 peptide: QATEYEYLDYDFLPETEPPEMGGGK
Procedure: (§2) A typical ELISA was performed by coating high binding half-well plates (Corning Cat. #3690) with 3 ug/mL/25 ul per well of biotinylated N-terminal PSGL-1 peptides, which incorporated residues 42 to 62 of the protein, in PBS, pH 7.4, overnight at 4° C. The peptide was unmodified or contained sulfated tyrosine at all 3 tyrosine positions (46, 48, and 51) or at one position (tyr51) (Table 7).
(§3) PSGL-1 protein or peptide served as a positive control. […] […] […] For each antibody, duplicate values were averaged and average assay background was subtracted.

[7] = biological target: T9, Cynomolgus PSGL-1(ECD)-hFc1 (cynomolgus macaque); experiment: ELISA, 20 nM mAb on plate cyno PSGL-1(ECD)-Fc
T9 construct: also called Cyno PSGL1-Fc; Cyno PSGL-1(ECD)-Fc
Procedure: Antibody binding to plate-immobilized cyno PSGL-1(ECD) was determined either at one concentration (20 nM) or by generating full antibody binding curves (0.003-200 nM). A typical ELISA was performed by overnight coating at 4° C. with 3 ug/mL/25 ul per well of recombinant cyno PSGL-1(ECD) protein in PBS, pH 7.4, in high binding half-well plates (Corning Cat. #3690). […] Anti-PSGL-1 IgG in assay buffer (blocking buffer containing 0.05% tween 20) was added into test and control wells (20 nM/25 ul/well) and the plate incubated for 45 min at 37° C. […] The plate was incubated for 45 min at 37° C., and mAb bound to plate-immobilized target determined at A450 nm using HRP substrate (3,3′,5,5′-tetramethylbenzidine (TMB)). For each antibody, duplicate values were averaged and assay background subtracted.

[8] = biological target: T10, Sulfotyrosine D6 biotin peptide (human); experiment: ELISA, 50 nM mAb
T10 construct: also called D6 peptide
T10 peptide: ENSSFY[sY][sY]D[sY]LDEVAFGGK(Biotin)
Procedure: as §1

[9] = biological target: T11, Scrambled Y42,52,63(SO3) PSGL-1(42-62) biotin peptide (sulfotyrosine at peptide positions 1, 11 and 22; C-terminal Lys-biotin); experiment: ELISA, immobilized biotin peptide
T11 peptide: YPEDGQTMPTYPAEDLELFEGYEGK
Procedure: as §2, §3

[10] = biological target: T12, Biotin PSGL-1(42-62) peptide, unmodified (human, C-terminal Lys-biotin); experiment: ELISA, immobilized biotin peptide
T12 construct: Residues 42-62 followed by GGGK-biotin; also called WT; wild-type
T12 peptide: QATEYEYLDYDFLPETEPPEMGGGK
Procedure: as §2, §3

T9 sequence (chain, as listed by the source limits assumed): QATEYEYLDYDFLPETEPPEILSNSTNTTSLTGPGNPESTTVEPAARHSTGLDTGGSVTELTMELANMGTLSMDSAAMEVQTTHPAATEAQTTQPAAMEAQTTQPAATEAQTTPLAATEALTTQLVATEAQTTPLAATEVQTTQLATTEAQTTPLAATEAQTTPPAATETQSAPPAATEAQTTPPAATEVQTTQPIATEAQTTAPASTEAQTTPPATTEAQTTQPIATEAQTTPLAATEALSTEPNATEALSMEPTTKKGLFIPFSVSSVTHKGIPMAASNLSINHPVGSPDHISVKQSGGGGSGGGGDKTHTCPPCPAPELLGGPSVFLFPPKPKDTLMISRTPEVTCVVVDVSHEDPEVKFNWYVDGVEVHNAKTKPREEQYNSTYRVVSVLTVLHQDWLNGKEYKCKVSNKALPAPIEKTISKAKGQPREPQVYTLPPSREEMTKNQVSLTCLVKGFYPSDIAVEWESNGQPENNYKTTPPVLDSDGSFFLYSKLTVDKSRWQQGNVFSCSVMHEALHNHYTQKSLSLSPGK
T4 sequence (P0C0L4 20-675 limits assumed, form in doubt, chain 1 of 3): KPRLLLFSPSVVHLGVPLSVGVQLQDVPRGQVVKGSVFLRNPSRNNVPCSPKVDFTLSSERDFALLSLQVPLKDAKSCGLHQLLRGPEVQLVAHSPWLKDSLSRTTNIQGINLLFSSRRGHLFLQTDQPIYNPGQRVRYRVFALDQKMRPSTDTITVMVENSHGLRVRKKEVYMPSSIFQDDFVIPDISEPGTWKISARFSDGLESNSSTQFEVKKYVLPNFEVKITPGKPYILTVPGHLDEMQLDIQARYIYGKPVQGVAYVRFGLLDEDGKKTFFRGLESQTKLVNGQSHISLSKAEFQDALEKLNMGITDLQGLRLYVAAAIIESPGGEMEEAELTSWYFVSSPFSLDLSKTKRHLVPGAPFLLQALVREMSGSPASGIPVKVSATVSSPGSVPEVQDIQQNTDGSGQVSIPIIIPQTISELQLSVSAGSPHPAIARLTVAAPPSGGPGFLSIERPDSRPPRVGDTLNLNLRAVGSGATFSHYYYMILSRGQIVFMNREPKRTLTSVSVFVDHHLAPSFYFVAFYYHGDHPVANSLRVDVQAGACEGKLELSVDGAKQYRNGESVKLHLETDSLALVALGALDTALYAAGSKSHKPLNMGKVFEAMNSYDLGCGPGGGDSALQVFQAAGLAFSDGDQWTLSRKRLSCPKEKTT
T4 sequence (P0C0L4 680-1446 limits assumed, form in doubt, chain 2 of 3): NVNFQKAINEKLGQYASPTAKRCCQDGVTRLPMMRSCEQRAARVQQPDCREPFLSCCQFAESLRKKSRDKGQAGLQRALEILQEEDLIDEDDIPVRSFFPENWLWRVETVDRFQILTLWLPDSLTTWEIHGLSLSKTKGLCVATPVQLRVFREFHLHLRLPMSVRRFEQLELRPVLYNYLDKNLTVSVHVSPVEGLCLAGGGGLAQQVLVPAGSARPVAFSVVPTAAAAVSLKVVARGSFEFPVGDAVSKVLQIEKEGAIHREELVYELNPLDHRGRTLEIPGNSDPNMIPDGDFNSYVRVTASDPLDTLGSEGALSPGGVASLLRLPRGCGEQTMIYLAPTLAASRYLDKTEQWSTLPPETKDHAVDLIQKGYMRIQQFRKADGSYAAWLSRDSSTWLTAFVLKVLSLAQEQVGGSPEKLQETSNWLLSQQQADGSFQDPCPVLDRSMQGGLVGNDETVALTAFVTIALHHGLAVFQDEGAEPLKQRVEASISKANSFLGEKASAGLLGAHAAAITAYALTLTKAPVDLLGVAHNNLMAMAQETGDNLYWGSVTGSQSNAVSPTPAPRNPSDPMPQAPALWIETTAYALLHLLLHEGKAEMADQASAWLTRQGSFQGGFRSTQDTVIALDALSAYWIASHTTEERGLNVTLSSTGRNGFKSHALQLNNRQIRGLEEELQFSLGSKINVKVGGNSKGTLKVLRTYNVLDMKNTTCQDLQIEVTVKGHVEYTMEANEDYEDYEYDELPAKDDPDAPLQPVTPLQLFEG
T4 sequence (P0C0L4 1454-1744 limits assumed, form in doubt, chain 3 of 3): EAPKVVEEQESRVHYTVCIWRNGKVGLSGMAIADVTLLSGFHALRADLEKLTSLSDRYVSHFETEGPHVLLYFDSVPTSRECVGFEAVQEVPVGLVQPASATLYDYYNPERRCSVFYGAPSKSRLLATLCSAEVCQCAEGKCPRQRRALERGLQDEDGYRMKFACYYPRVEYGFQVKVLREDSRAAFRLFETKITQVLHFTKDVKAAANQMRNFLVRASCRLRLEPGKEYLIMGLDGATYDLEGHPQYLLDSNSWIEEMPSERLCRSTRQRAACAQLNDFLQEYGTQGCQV

| Binder | binding normalized to PSGL-1 (SulfoTyr C4 peptide) | binding normalized to PSGL-1 [1] | A450nm [2] | binding normalized to PSGL-1 [3] | binding normalized to PSGL-1 [4] | binding normalized to PSGL-1 (SulfoCCK biotin peptide) | binding normalized to PSGL-1 [5] | A450nm, 20 nM mAb [6] | A450nm [7] | binding result [4] | binding result [5] | binding normalized to PSGL-1 [8] | A450nm, 20 nM mAb [9] | binding result [9] | EC50 [10] | EC50 [6] | A450nm, 20 nM mAb [10] |
| --- | --- | --- | --- | --- | --- | --- | --- | --- | --- | --- | --- | --- | --- | --- | --- | --- | --- |
| 10B03 (antibody, IgG4, V domains shown) VH: EVKLLESGGDLVQPGGSLRLSCAASGLTFSNYAMSWVRQAPGKGLEWVSAISGSGDNTYYADSVKGRFTISRDNSKNTLYLQMNSLRADDTAVYFCAKRDSWGQGTLVTVSS VL: QAVLTQPPSASGTPGQRVTISCSGSTSNIGSRDVYWYQHLPGTAPKLVIYRNDQRPSGVPDRFSGSKSGTSASLAISGLRSEDDADYYCAVWDNSLRGRVFGGGTKLTVL | 1.08 | 1.18 | 2.18 A450nm | 1.16 | 0.68 | 0.56 | 0.98 | 2.68 A450nm | 0.68 A450 nm |  |  |  |  |  |  |  |  |
| 03B04 (antibody, IgG4, V domains shown) VH: EVKLLESGGGLVKPGGSLRLSCAASGFAFSRYTMNWVRQAPGKGLEWVSSISSSSSYIYYADSVKGRFTISRDNAKNSLVLQMNSLRPEDTAVYYCARGGIAANDYWGQGTLVTVSS VL: EIVMTQTPLSLPVTLGQPASISCRSSRNLVHYDGNTYLSWFHQRPGQPPRRLIYKISNRESGVPDRFSGSGSGTDFTLKISRVEAEDVGVYYCLQHTHWPWTFGPGTKVEIK | 0.41 | 0.57 | 1.7 A450nm | 0.56 | -0.07 | 0.13 | 0.01 | 2.5 A450nm |  | no binding (tested: 50 nM) | no binding (tested: 50 nM) | 0.42 | 0.01 A450nm | no binding (tested: 20 nM) | 5.1 nM | 1.7 nM |  |
| 03B03 (antibody, IgG4, V domains shown) VH: EVQLVQSGGGLVQPGGSLRLSCAATGFTVSRNYMTWVREAPGKGLEWVAGIYKSGTTSYTESVKGRFTISRDNSKNTLYLEMSRLRAEDTAVYYCAKSTSTWGQGTQVTVSS VL: DIVMTQSPLSLPVTLGQPASISCRASQSPGYSDGNTYLNWFQQRPGQSPRRLIYKVSNRDPGVPDRFSGSGSGTDFTLKISRVEAEDVGVYYCMQATHWPSFGQGTRLEIK | 1 | 1.01 |  | 0.94 | 0.27 | 0.98 | 0.89 | 2.5 A450nm | 0.45 A450 nm |  |  |  | 0.04 A450nm | no binding (tested: 20 nM) |  |  | 2.21 A450nm |
| 03D01 (antibody, IgG4, V domains shown) VH: EVQLVQSGGGLVQPGGSLRLSCAATGFTVSRNYMTWVREAPGKGLEWVAGIYKSGTTSYIESVKGRFTISRDNSKNTLYLEMSRLRAEDTAVYYCAKSTSTWGQGTQVTVSS VL: DVVMTQSPVSLPVTLGQPASISCRSSRNLLYSNGNTYLNWFHQRPGQSPRRLIYKVSNQDSGVPDRFSGSGSGTDFTLKISRVEAEDVGVYYCMQGTHWPTTFGQGTRLEIK | 1.13 | 1.17 |  | 1.07 | -0.2 | 0.94 | 0.94 | 2.67 A450nm | 0.71 A450 nm | no binding (tested: 50 nM) |  |  |  |  |  |  | 2.52 A450nm |
